Here are results for 84 variants from the RNAGym collection of RNA variant scans (doi:10.1101/gr.219683.116).

B1: mRNA-splicing (parent)
chain: AGUUGCUGCUGGGAGCUCCAGCACAGUGAAAUGGACAGAAGGGCAGAGCAA

Variants of B1 are the subject of the series. Nature of the series: exon inclusion enrichment index; higher = more inclusion; WT1 exon 5 minigene, HEK293.
In the case of C19U, the “exon inclusion enrichment index” value was determined as 0.199. In the case of G5C C6A U7C G8A U10A G46U A47U, the “exon inclusion enrichment index” value stood at 0.206. The result for G5A C6U U7A G8U C9A C44A reads 0.286; that for G5A U7C G8A U10C A47G G48C, 1.13; that for G5C C6A U7C G8A U10A U27C G28C, 0.163. As to G5A C6U U7C U10C, the “exon inclusion enrichment index” value came out at 3.3. The result for G5C C6G U7C U10C A14G G15C reads 1.64; that for G5C C6A U7C G8A U10A G41C G42U, 0.481.

With G5C C6A U7C G8A U10A A37U G38U, the “exon inclusion enrichment index” value was determined as 0.0186. Take C6A U7A C9A U10A G48C: the “exon inclusion enrichment index” value was 1.15. The same measure for C6A U7C C9A U10C A29G A30G: 3.23. The same measure for A45C G46C: 0.068. Regarding G5U G8U C9U A40C G41U, the “exon inclusion enrichment index” value was 0.079.

With G5C C6A U7C G8A U10A A37C G38U, the “exon inclusion enrichment index” value is 0.0457. The same measure for U3A U4A: 0.0787.

G5C C6A U7C G8A U10A U27A G28U: the “exon inclusion enrichment index” value worked out at 0.0378. Turning to G5U G8U C9U G11A, the “exon inclusion enrichment index” value was 0.0224. The result for G5A C6U U7A G8U C9A A35U C36A reads 0.000817; that for G5A U7C G8A U10C A23C C24U, 1.16. In the case of G5A C6U U7A G8U C9A G42U G43A, the “exon inclusion enrichment index” value worked out at 0.282. Take C6A U7C C9A U10C A23G C24U: the “exon inclusion enrichment index” value is 1.95. The result for C6U U7G C9A reads 0.522; that for G5C C6U G8C C9U U10C G41C G42U, 2.93; that for G5A U7C G8A U10C A45C G46C, 1.61. Consider G5A C6U U7A G8U C9A C44U A45G, for which the “exon inclusion enrichment index” value turned out to be 0.0383. The same measure for C6A U7A C9A U10A C16G U17G: 0.02. The result for C6A U7A C9A G11U reads 2.86; that for G5C C6A U7A G8C U10A, 0.514; that for U4G G5A U7C G8A U10C, 3.1.

For G5C C6U G8C C9U U10C C36U A37U, the “exon inclusion enrichment index” value is 1.12.

For the variant G5C C6G U7C U10C A40C, the “exon inclusion enrichment index” value is 3.66. The same measure for G5C C6U U7A G8U C9A: 0.195; for G2A U3C C6A U7A C9A U10A: 0.648; for C6A U7C C9A U10C A29C A30G: 4.07. The same measure for G5A C6U U7A G8U C9A G33A G34C: 0.0195; for G5U G8U C9G U10C: 0.741; for C6A U7C C9A U10C G13U A14C: 2.46. The result for U3G U4G G5C C6A U7C G8A U10A reads 0.0147.

As for C6A U7A C9A U10A C22U A23G, the “exon inclusion enrichment index” value is 0.694. The result for C6A U7C C9A U10C C16A U17A reads 3.43; that for G5U G8U U10G, 1.8; that for G5U G8U C9U C44G A45U, 0.0543.

Regarding C6A U7C C9A U10C G26A U27C, the “exon inclusion enrichment index” value came to 4.65. Take A23U C24G: the “exon inclusion enrichment index” value worked out at 0.96.

As for G5C C6U G8C C9U U10C G12A, the “exon inclusion enrichment index” value is 0.889. The same measure for G5C C6G U7C U10C A35G C36A: 2.07.

Turning to C9G U10A, the “exon inclusion enrichment index” value turned out to be 0.0101.

For C16A, the “exon inclusion enrichment index” value stood at 0.0656. As for G5A U7C G8A U10C C19A, the “exon inclusion enrichment index” value was 1.39.

On to G5A C6U U7A G8U C9A A35C, for which the “exon inclusion enrichment index” value was 0.00811. The same measure for G5A C6U U7A G8U C9A G12C G13U: 0.000527; for G5A C6U U7A G8U C9A G12C G13A: 0.0284; for G28U: 0.0227. The same measure for G5A C6G U7G C9A A23U C24G: 0.000949; for G5C C6U G8C C9U U10C A45U G46C: 1.3.

In the case of C6A U7C C9A U10C G28A, the “exon inclusion enrichment index” value worked out at 1.59.

Turning to G5C C6G U7C U10C A29C, the “exon inclusion enrichment index” value is 3.11. Turning to G5C C6A U7C G8A U10A A40C G41A, the “exon inclusion enrichment index” value was 0.0281. The result for G5C C6U G8C C9U U10C A23G C24G reads 3.51; that for C6A U7C C9A U10C A35G, 1.79; that for A31U U32C, 0.301. The same measure for G5C C6A U7C G8A U10A G28A: 0.0118. The same measure for C6A U7C C9A U10C C36G: 2.75; for C6A U7C C9A U10C G15C: 4. As to G5C C6G U7C U10C A47U G48A, the “exon inclusion enrichment index” value was found to be 3.03. The result for G5U G8U C9U A37U G38U reads 0.0252; that for C6A U7C C9A U10G G11C, 2.72; that for C18A C19G, 0.352.

Regarding C6A U7C C9A U10C G33A G34A, the “exon inclusion enrichment index” value is 0.865. Turning to G5U G8U C9U A40G G41C, the “exon inclusion enrichment index” value amounted to 0.76.

With G5C C6U G8C C9U U10C C22G A23G, the “exon inclusion enrichment index” value was found to be 0.846. G5A C6U U7A G8U C9A A23U C24G: the “exon inclusion enrichment index” value was determined as 0.128. In the case of C6A U7A C9A U10A G15C C16U, the “exon inclusion enrichment index” value is 0.63. As for G5C C6G U7A G8A U10A, the “exon inclusion enrichment index” value amounted to 0.321. The result for G5A C6G U7G C9A A23G C24G reads 0.0109; that for G5C C6U G8C C9U U10C G33U G34C, 0.547. The result for C6A U7C C9A U10C C18U C19U reads 0.145; that for G5U G8U C9U G12U G13A, 0.000421. For G5C C6G U7C G8A U10C, the “exon inclusion enrichment index” value is 3.31. For the variant G5A C6G U7G C9A A23G, the “exon inclusion enrichment index” value came out at 0.00235.

Turning to G5A C6G U7G C9A C16A, the “exon inclusion enrichment index” value was 0.00192. As for G5U C6U G8C C9U U10C, the “exon inclusion enrichment index” value amounted to 0.672.

With G5C C6U G8C C9U U10C U17C, the “exon inclusion enrichment index” value turned out to be 1.43. In the case of G5A C6U U7A G8U C9A A25G, the “exon inclusion enrichment index” value came to 0.293.
